From article PMC2925374, “Oligomerization of Uukuniemi virus nucleocapsid protein” (Virology Journal, 2010)
Numbering of substitutions follows the chain as printed. Numbers in names are those of the source. Where “and” joins values, the source holds several entries; their conditions need not be identical. Equal entries are not always repeated.

B1: Uukuniemi virus nucleocapsid (N) protein, full-length wild type (pcDNA-UUKV-N) (natural protein)
chain: MAMPENWVRFAIEISDAQWEEEEIREFINLFQYQGFDAAVVLSRIFELAKKADLSRDQMLRDIRALITLHLTRGNKLSSIEKRLSEEGKKEFALLKARYQLVDKAKEAADLTLSRIAIANAGLTCRILPQVVAHTAVTRSRMESLSADYPVCMMHNAFAGLIDETLPEDSIKALVDAHRLYLLEFSRTINVKHRGMEAKEILDANDSALQAGLASSFLTPSQKRAYLLSFKLVDGNGKVNKAVQQAATVLRSLI
notes: Uukuniemi virus nucleocapsid (N) protein, 254 aa residues; No tag is mentioned; detected with a rabbit antiserum against UUKV-N; also called UUKV-N protein; wt N protein; source: COS-7, transfected (pcDNA-UUKV-N), in lysate
B2: UUKV-N protein point mutant W7A, mammalian two-hybrid fusions (natural protein)
chain: B1 chain with W7A
notes: Uukuniemi virus nucleocapsid (N) protein, 254 aa residues; Mutation introduced into both the DNA-BD and the DNA-AD fusion; no chain carries both domains; source: HeLa, transfected, mammalian two-hybrid fusions
B3: UUKV-N protein point mutant F10A, mammalian two-hybrid fusions (natural protein)
chain: B1 chain with F10A
notes: as for B2
B4: UUKV-N protein point mutant I14A, mammalian two-hybrid fusions (natural protein)
chain: B1 chain with I14A
notes: as for B2
B5: UUKV-N protein point mutant W19A, mammalian two-hybrid fusions (natural protein)
chain: B1 chain with W19A
notes: as for B2
B6: UUKV-N protein point mutant I24A, mammalian two-hybrid fusions (natural protein)
chain: B1 chain with I24A
notes: as for B2
B7: UUKV-N protein point mutant F27A, mammalian two-hybrid fusions (natural protein)
chain: B1 chain with F27A
notes: as for B2
B8: UUKV-N protein point mutant F31A, mammalian two-hybrid fusions (natural protein)
chain: B1 chain with F31A
notes: as for B2
B9: UUKV-N protein point mutant Y33A, mammalian two-hybrid fusions (natural protein)
chain: B1 chain with Y33A
notes: Uukuniemi virus nucleocapsid (N) protein, 254 aa residues; Mutation introduced into both the DNA-BD and the DNA-AD fusion; no chain carries both domains; also called negative control mutant; source: HeLa, transfected, mammalian two-hybrid fusions
B10: UUKV-N protein double mutant QQ244,245AA, mammalian two-hybrid fusions (natural protein)
chain: B1 chain with Q244A, Q245A
notes: Uukuniemi virus nucleocapsid (N) protein, 254 aa residues; source: HeLa, transfected, mammalian two-hybrid fusions
B11: UUKV-N protein point mutant R251A, mammalian two-hybrid fusions (natural protein)
chain: B1 chain with R251A
notes: as for B10

What was measured:
[1] = molecular target: the molecule itself; experiment: cross-linking; lysates of transfected COS-7 cells (PBS pH 7.4, freeze-thawed), 0.1 or 0.5 mM BS3, 30 min at room temperature, quenched with 50 mM Tris-HCl pH 7.5; 10% SDS-PAGE, immunoblot with rabbit antiserum against UUKV-N
[2] = molecular target: the molecule itself; experiment: two-hybrid; mammalian two-hybrid in HeLa cells: GAL4 DNA-BD (pM) and VP16 DNA-AD (pVP) fusions, pG5luc firefly luciferase normalised to Renilla luciferase, 24 h post-transfection; percent of the wt N-N interaction

Protein	stoichiometry N [1]	M2H % of interaction [2]
B1	2 and 3	
B2		> 100%
B3		34 ± 4%
B4		60 ± 18%
B5		> 100%
B6		56 ± 12%
B7		> 100%
B8		23 ± 5%
B9		> 100%
B10		> 100%
B11		96 ± 11%
